Our source for the self-cleavage values is the RNAGym collection of RNA variant scans (doi:10.1093/nar/gkz1192).

The labels stand for the following.
B1: CPEB3 Ribozyme (parent)
chain: UAACAGGGGGCCACAGCAGAAGCGUUCACGUCGCAGCCCCUGUCAGAUUCUGGUGAAUCUGCGAAUUCUGCUGUAUAUCUC

The variants in the data set derive from B1. Nature of the data set: self-cleavage, relative activity (ratio to wild type); higher = more cleavage; in vitro, sequencing. The procedure, abridged: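 For each CPEB3 ribozyme variant, relative activity is its cleaved/total read fraction divided by the unmutated ribozyme's. Barcoded error-prone PCR libraries were transcribed by T7 RNA polymerase (5 hours, 37°C) and held in DNase I for 15 min before an EDTA stop, with cleavage occurring throughout. Template-switching reverse transcription and Illumina sequencing were used to read the RNAs. A 5-read minimum applied, and results are the mean of three batches.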
For the variant UAACAGGGGGCCACAGCAGAAGCGUUCACGUCGCCGCCCCUGUCAGAUUCUGGUGAAUCUGCGAAUUCUGCUGUAGAUCUC, the self-cleavage was determined as 0.77.

In the case of UAACAGGGGGCCACAGCAGAAGCGUUCACGUCGCCGCCCCUGUCAGAUUCUGGUGAAUCUGCGAAUUCUGCUGUACAUCUC, the self-cleavage worked out at 0.96.

For UAACAGGGGGCCACAGCAGAAGCGUUCACGUCGCCGCCCCUGUCAGAUUCUGGUGAAUCUGCGAGUUCUGCUGUAUAUCUC, the self-cleavage was determined as 0.34.

Take UAACAGGGGGCCACAGCAGAAGCGUUCACGUCGCCGCCCCUGUCAGAUUCUGGUGAAUCUGCGAAUUCUGCCGUAUAUCUC: the self-cleavage was determined as 1.14.

In the case of UAACAGGGGGCCACAGCAGAAGCGUUCACGUCGCCGCCCCUGUCAGAUUCUGGUGAAUCUGCGAAUUCUGCGGUAUAUCUC, the self-cleavage came to 0.43.

Take UAACAGGGGGCCACAGCAGAAGCGUUCACGUCGCGGCCCCUGUCAGAUUCUGGUGCAUCUGCGAAUUCUGCUGUAUAUCUC: the self-cleavage was 1.27.

In the case of UAACAGGGGGCCACAGCAGAAGCGUUCACGUCGCGGCCCCUGUCAGAUUCUGGUGGAUCUGCGAAUUCUGCUGUAUAUCUC, the self-cleavage amounted to 1.27.

Regarding UAACAGGGGGCCACAGCAGAAGCGUUCACGUCGCCGCCCCUGUCAGAUUCCGGUGAAUCUGCGAAUUCUGCUGUAUAUCUC, the self-cleavage is 0.79.

For the variant UAACAGGGGGCCACAGCAGAAGCGUUCACGUCGCCGCCCCUGUCAGAUUCAGGUGAAUCUGCGAAUUCUGCUGUAUAUCUC, the self-cleavage amounted to 1.

Turning to UAACAGGGGGCCACAGCAGAAGCGUUCACGUCGCCGCCCCUGUCAGAUUCUGGUGAAUCUGCGAAUUCGGCUGUAUAUCUC, the self-cleavage is 0.62.

Consider UAACAGGGGGCCACAGCAGAAGCGUUCACGUCGCCGCCCCUGUCAGAUUCUGGUGAAUCUGCGAAUUCCGCUGUAUAUCUC, for which the self-cleavage stood at 0.46.

As to UAACAGGGGGCCACAGCAGAAGCGUUCACGUCGCCGCCCCUGUCAGAUUCUGGUGAAUCUGCGAAUUCAGCUGUAUAUCUC, the self-cleavage stood at 0.53.

Regarding UAACAGGGGGCCACAGCAGAAGCGUUCACGUCGCCGCCCCUGUCAGAUUCUGGUGAAUCUGCGAACUCUGCUGUAUAUCUC, the self-cleavage is 0.5.

UAACAGGGGGCCACAGCAGAAGCGUUCACGUCGCCGCCCCUGUCAGAUUCUGGUGAAUCUGCGAAAUCUGCUGUAUAUCUC: the self-cleavage turned out to be 0.21.

On to UAACAGGGGGCCACAGCAGAAGCGUUCACGUCGCCGCCCCUGACAGAUUCUGGUGAAUCUGCGAAUUCUGCUGUAUAUCUC, for which the self-cleavage came out at 1.06.

As to UAACAGGGGGCCACAGCAGAAGCGUUCACGUCGCCGCCCCUGCCAGAUUCUGGUGAAUCUGCGAAUUCUGCUGUAUAUCUC, the self-cleavage was 0.35.

As to UAACAGGGGGCCACAGCAGAAGCGUUCACGUCGCCGCCCCUGUCAGAUUCUGGUGAAUCUGCGAAUUCUGCUGUAUAUCAC, the self-cleavage came out at 0.89.

For the variant UAACAGGGGGCCACAGCAGAAGCGUUCACGUCGCCGCCCCUGUCAGAUUCUGGUGAAUCUGCGAAUUCUGCUGUAUAUCCC, the self-cleavage was 0.84.

On to UAACAGGGGGCCACAGCAGAAGCGUUCACGUCGCCGCCCCUGUCAGAUUCUGGUGAAUCUGCGAAUACUGCUGUAUAUCUC, for which the self-cleavage was 0.23.

On to UAACAGGGGGCCACAGCAGAAGCGUUCACGUCGCCGCCCCUGUCAGAUUCUGGUGAAUCUGCGAAUGCUGCUGUAUAUCUC, for which the self-cleavage turned out to be 0.39.

Consider UAACAGGGGGCCACAGCAGAAGCGUUCACGUCGCCGCCCCUGUCAGAUUCUGGUGAAUCUGCGAAUCCUGCUGUAUAUCUC, for which the self-cleavage came to 0.23.

Regarding UAACAGGGGGCCACAGCAGAAGCGUUCACGUCGCCGCCCCUGUCAGAUUCUGGUGGAUCUGCGAAUUCUGCUGUAUAUCUC, the self-cleavage worked out at 0.77.

For the variant UAACAGGGGGCCACAGCAGAAGCGUUCACGUCGCCGCCCCUGUCAGAUUCUGGUGUAUCUGCGAAUUCUGCUGUAUAUCUC, the self-cleavage was determined as 0.53.

In the case of UAACAGGGGGCCACAGCAGAAGCGUUCACGUCGUAGCCCCUGUCAGAUUCUGGUGAAUCUGCGAAUUCUGCUGUAUACCUC, the self-cleavage came to 0.3.

Turning to UAACAGGGGGCCACAGCAGAAGCGUUCACGUCGUAGCCCCUGUCAGAUUCUGGUGAAUCUGCGAAUUCUGCUGUAAAUCUC, the self-cleavage is 0.5.

For UAACAGGGGGCCACAGCAGAAGCGUUCACGUCGUAGCCCCUGUCAGAUUCUGGUGAAUCUGCGAAUUCUGCUGUACAUCUC, the self-cleavage amounted to 0.35.

In the case of UAACAGGGGGCCACAGCAGAAGCGUUCACGUCGCGGCCCCUGUCAGGUUCUGGUGAAUCUGCGAAUUCUGCUGUAUAUCUC, the self-cleavage was 1.26.

Take UAACAGGGGGCCACAGCAGAAGCGUUCACGUCGCGGCCCCUGUCAGUUUCUGGUGAAUCUGCGAAUUCUGCUGUAUAUCUC: the self-cleavage was found to be 1.16.

With UAACAGGGGGCCACAGCAGAAGCGUUCACGUCGCGGCCCCUGUCAGCUUCUGGUGAAUCUGCGAAUUCUGCUGUAUAUCUC, the self-cleavage came out at 1.3.

Regarding UAACAGGGGGCCACAGCAGAAGCGUUCACGUCGCCGCACCUGUCAGAUUCUGGUGAAUCUGCGAAUUCUGCUGUAUAUCUC, the self-cleavage came out at 0.2.

Consider UAACAGGGGGCCACAGCAGAAGCGUUCACGUCGCCGCCCCUGUCAGAUUCUGGUGAAUCUGCGUAUUCUGCUGUAUAUCUC, for which the self-cleavage worked out at 0.25.

Consider UAACAGGGGGCCACAGCAGAAGCGUUCACGUCGCCGCCCCUGUCAGAUUCUGGUGAAUCUGCGGAUUCUGCUGUAUAUCUC, for which the self-cleavage is 0.3.

Regarding UAACAGGGGGCCACAGCAGAAGCGUUCACGUCGCCGCCCCUGUCAGAUUCUGGUGAAUCUGCGAAUUCUGCUGUAUAUCUC, the self-cleavage was 0.85.

In the case of UAACAGGGGGCCACAGCAGAAGCGUUCACGUCGCGGCCCCUGUCAGAUUCUGGUGAAUCUGCGAAUUCUGCUGUAUAUCUC, the self-cleavage worked out at 1.27.

Regarding UAACAGGGGGCCACAGCAGAAGCGUUCACGUCGCCGCCCCUGUCCGAUUCUGGUGAAUCUGCGAAUUCUGCUGUAUAUCUC, the self-cleavage is 0.31.

Turning to UAACAGGGGGCCACAGCAGAAGCGUUCACGUCGCCGCCCCUGUCUGAUUCUGGUGAAUCUGCGAAUUCUGCUGUAUAUCUC, the self-cleavage came to 0.24.

As to UAACAGGGGGCCACAGCAGAAGCGUUCACGUCGCCGCCCCAGUCAGAUUCUGGUGAAUCUGCGAAUUCUGCUGUAUAUCUC, the self-cleavage came to 0.47.

Regarding UAACAGGGGGCCACAGCAGAAGCGUUCACGUCGCCGCCCCGGUCAGAUUCUGGUGAAUCUGCGAAUUCUGCUGUAUAUCUC, the self-cleavage stood at 0.2.

Consider UAACAGGGGGCCACAGCAGAAGCGUUCACGUCGCCGCCCCCGUCAGAUUCUGGUGAAUCUGCGAAUUCUGCUGUAUAUCUC, for which the self-cleavage stood at 0.72.

With UAACAGGGGGCCACAGCAGAAGCGUUCACGUCGCCGCCCCUGUCAGAUUCUGGUGACUCUGCGAAUUCUGCUGUAUAUCUC, the self-cleavage came out at 0.28.

On to UAACAGGGGGCCACAGCAGAAGCGUUCACGUCGCCGCCCCUGUCAGAUUCUGGUGAGUCUGCGAAUUCUGCUGUAUAUCUC, for which the self-cleavage was determined as 0.93.

With UAACAGGGGGCCACAGCAGAAGCGUUCACGUCGCCGCCCCUGUCAGAUUCUGGUGAAUCUGCGAAUUCUGCUGUAUACCUC, the self-cleavage was 0.73.

As for UAACAGGGGGCCACAGCAGAAGCGUUCACGUCGCCGCCCCUGUCAGAUUCUGGUGAAUCUGCGAAUUCUGCUGUAUAACUC, the self-cleavage stood at 0.74.

In the case of UAACAGGGGGCCACAGCAGAAGCGUUCACGUCGCCGCCCCUGUCAGACUCUGGUGAAUCUGCGAAUUCUGCUGUAUAUCUC, the self-cleavage amounted to 0.47.

For the variant UAACAGGGGGCCACAGCAGAAGCGUUCACGUCGCCGCCCCUGUCAGAAUCUGGUGAAUCUGCGAAUUCUGCUGUAUAUCUC, the self-cleavage was 0.45.

Consider UAACAGGGGGCCACAGCAGAAGCGUUCACGUCGUAGCCCCUGUCAGAUUCUGGUGAAUCUGCGAAUUCUGCUGUAUAUCGC, for which the self-cleavage amounted to 0.27.

On to UAACAGGGGGCCACAGCAGAAGCGUUCACGUCGUAGCCCCUGUCAGAUUCUGGUGAAUCUGCGAAUUCUGCUGUAUAUCCC, for which the self-cleavage was determined as 0.58.

As for UAACAGGGGGCCACAGCAGAAGCGUUCACGUCGUAGCCCCUGUCAGAUUCUGGUGAAUCUGCGAAUUCUGCUGUAUAUCAC, the self-cleavage amounted to 0.51.

For UAACAGGGGGCCACAGCAGAAGCGUUCACGUCGUAGCCCCUGUCAGAUUCUGGUGAAUCUGCGAAUUCUGCUGCAUAUCUC, the self-cleavage was 0.84.

In the case of UAACAGGGGGCCACAGCAGAAGCGUUCACGUCGUAGCCCCUGUCAGAUUCUGGUGAAUCUGCGAAUUCUGCUGAAUAUCUC, the self-cleavage is 0.52.

As to UAACAGGGGGCCACAGCAGAAGCGUUCACGUCGCCGCCCCUGUCAGAUUCUGGUGAAUCUGCGAAUUCUGCUGUAUAUCUU, the self-cleavage was 0.93.

Consider UAACAGGGGGCCACAGCAGAAGCGUUCACGUCGCCGCCCAUGUCAGAUUCUGGUGAAUCUGCGAAUUCUGCUGUAUAUCUC, for which the self-cleavage came out at 0.6.

On to UAACAGGGGGCCACAGCAGAAGCGUUCACGUCGCCGCCCCUGUCAGAUUCUGGUGAAUCCGCGAAUUCUGCUGUAUAUCUC, for which the self-cleavage worked out at 0.48.

Consider UAACAGGGGGCCACAGCAGAAGCGUUCACGUCGCCGCCCCUGUCAGAUUCUGGUGAAUCUGCGAAUUCUGCUGCAUAUCUC, for which the self-cleavage was determined as 1.17.

As for UAACAGGGGGCCACAGCAGAAGCGUUCACGUCGCCGCCCCUGUCAGGUUCUGGUGAAUCUGCGAAUUCUGCUGUAUAUCUC, the self-cleavage came out at 0.81.

In the case of UAACAGGGGGCCACAGCAGAAGCGUUCACGUCGCCGCCCCUGUCAGUUUCUGGUGAAUCUGCGAAUUCUGCUGUAUAUCUC, the self-cleavage worked out at 0.63.

As to UAACAGGGGGCCACAGCAGAAGCGUUCACGUCGCCGCCCCUGUCAGAUCCUGGUGAAUCUGCGAAUUCUGCUGUAUAUCUC, the self-cleavage turned out to be 0.4.

For the variant UAACAGGGGGCCACAGCAGAAGCGUUCACGUCGCCGCCCCUGUCAGAUUCUGGUGAAUCUGCGAAUUCUGCUGUGUAUCUC, the self-cleavage turned out to be 0.87.

Take UAACAGGGGGCCACAGCAGAAGCGUUCACGUCGCCGCCCCUGUCAGAUUCUGGUGAAUCUGCGAAUUCUGCUGUUUAUCUC: the self-cleavage is 0.97.

Take UAACAGGGGGCCACAGCAGAAGCGUUCACGUCGCGGCCCCUGUCUGAUUCUGGUGAAUCUGCGAAUUCUGCUGUAUAUCUC: the self-cleavage came out at 1.13.

UAACAGGGGGCCACAGCAGAAGCGUUCACGUCGCGGCCCCUGUCGGAUUCUGGUGAAUCUGCGAAUUCUGCUGUAUAUCUC: the self-cleavage is 1.26.

Take UAACAGGGGGCCACAGCAGAAGCGUUCACGUCGCGGCCCCUGUCCGAUUCUGGUGAAUCUGCGAAUUCUGCUGUAUAUCUC: the self-cleavage stood at 1.17.

With UAACAGGGGGCCACAGCAGAAGCGUUCACGUCGCCGCCCCUGUCAGAUUCUGGUGAAUCUACGAAUUCUGCUGUAUAUCUC, the self-cleavage was found to be 0.41.

As for UAACAGGGGGCCACAGCAGAAGCGUUCACGUCGCCGCCCCUGUCAGAUUAUGGUGAAUCUGCGAAUUCUGCUGUAUAUCUC, the self-cleavage is 0.92.

On to UAACAGGGGGCCACAGCAGAAGCGUUCACGUCGCCGCCACUGUCAGAUUCUGGUGAAUCUGCGAAUUCUGCUGUAUAUCUC, for which the self-cleavage stood at 0.31.

With UAACAGGGGGCCACAGCAGAAGCGUUCACGUCGCCGCCCCUGUCAGAUUCUGGUGAAUCUGCGAAUUCUGCUGUAUUUCUC, the self-cleavage was found to be 1.07.

For the variant UAACAGGGGGCCACAGCAGAAGCGUUCACGUCGCCGCCCCUGUCAGAUUCUGGUUAAUCUGCGAAUUCUGCUGUAUAUCUC, the self-cleavage stood at 0.81.

As to UAACAGGGGGCCACAGCAGAAGCGUUCACGUCGCCGCCCCUGUCAGAUUCUGGCGAAUCUGCGAAUUCUGCUGUAUAUCUC, the self-cleavage came out at 0.8.
